Values of other authors in article PMC5680199.

Target: human thrombin (human) (UniProt P00734+P00734)
Assay: not stated (cited)
Conditions: phi29 DNA polymerase buffer adjusted to 10 mM K+ (optimum), ThT-HE 5 uM, 37 C, 2 h; pH not given in material

## 29-mer thrombin-binding aptamer (TBA)
  Kd: 0.5 nM
